Test results as given in paper PMC4315436.

Target: LGF2
Experiment: two-hybrid; BacterioMatch II bacterial two-hybrid in E. coli reporter cells; bait in pBT as λcI fusion, prey in pTRG as RNAPα fusion; 30 ng each of bait and prey vector; HIS3 reporter, cfu on selective screening medium with 3-AT; three repeats, mean ± 1 SD

Q: Which cfu on selective screening medium (with 3-AT) does the source give for Gal11^P (domain or fragment) here?
A: 1000 cfu
